This passage reports Kd results from US20240425588A1 (published 2024).

Sequences and labels used below:
B1: 50C2 Original (antibody, V domains shown)
VH: QVQLKESGPGLVAPSQSLSITCTVSGFSLTNYNINWIRQPPGKGLEWLGVIWTGGGTNYNSAFMSRLSISKDNSKSQVFLKMNRLQTDDTAIYYCVREAYFSNYGFYFDYWGQGTTLTVSS
VL: EIVLTQSPTTMAASPGEKITITCSASSSISSNYLHWYQQKPGFSPKLLIYRTSNLASGVPARFSGSGSGTSYSLTIGTMEAEDVATYYCQQGSSIPRTFGGGTKLEIK
B2: 32B10 Original (antibody, V domains shown)
VH: EVQLVESGGVLVKPGGSLKLSCAASGFTFSNYVMSWVRQTPEKRLEWVATITSGGTYTYYPDSVKGRFTISRDNAKNILYLQMSSLRSEDTALYYCTRWLLSLYAMDYWGQGTSVTVSS
VL: DIQMTQTTSSLSASLGDRVTITCRASQDISNFLNWYQQKPDGTVKLLIYYTSRLHSGVPSRFSGSGSGTDYSLTISNLEQEDIATYFCQQGKTYPYTFGGGTKVEIK
B3: 32B10 Humanized (Hu) (antibody, V domains shown)
VH: EVQLLESGGGLVQPGGSLRLSCAASGFTFSNYVMSWVRQAPGKGLEWVSTITSGGTYTYYPDSVKGRFTISRDNSKNTLYLQMNSLRAEDTAVYYCTRWLLSLYAMDYWGQGTTVTVSS
VL: DIQMTQSPSSLSASVGDRVTITCRASQDISNFLNWYQQKPGKAVKLLLYYTSRLHSGVPSRFSGSGSGTDYTLTISSLQPEDFATYFCQQGKTYPYTFGGGTKVEIK
B4: 32B10 Affinity Matured (HAM) (antibody, V domains shown)
VH: EVQLLESGGGLVQPGGSLRLSCAASGFTFSNYVMSWVRQAPGKGLEWVSTITSGGTYTYYPDSVKGRFTISRDNSKNTLYLQMNSLRAEDTAVYYCTRWLLSLYAMDYWGQGTTVTVSS
VL: DIQMTQSPSSLSASVGDRVTITCRASQDISNFLNWYQQKPGKAVKLLLYYTSRLHSGVPSRFSGSGSGTDYTLTISSLQPEDFATYFCQQFKTYPYTFGGGTKVEIK
B5: 45.50C2.A6 (antibody, V domains shown)
VH: QVQLKESGPGLVAPSQSLSITCTVSGFSLTNYNINWIRQPPGKGLEWLGVIWTGGGTNYNSAFMSRLSISKDNSKSQVFLKMNRLQTDDTAIYYCVREAYFSNYGFYFDYWGQGTTLTVSS
VL: EIVLTQSPTTMAASPGEKITITCSASSSISSNYLHWYQQKPGFSPKLLIYRTSNLASGVPARFSGSGSGTSYSLTIGTMEAEDVATYYCQQGSSIPRTFGGGTKLEIK
B6: 45.32B10.A4 (antibody, V domains shown)
VH: EVQLVESGGVLVKPGGSLKLSCAASGFTFSNYVMSWVRQTPEKRLEWVATITSGGTYTYYPDSVKGRFTISRDNAKNILYLQMSSLRSEDTALYYCTRWLLSLYAMDYWGQGTSVTVSS
VL: DIQMTQTTSSLSASLGDRVTITCRASQDISNFLNWYQQKPDGTVKLLIYYTSRLHSGVPSRFSGSGSGTDYSLTISNLEQEDIATYFCQQGKTYPYTFGGGTKVEIK
B7: hu50C2 HAM (45.50C2.A6) (antibody, V domains shown)
VH: QVQLQESGPGLVKPSETLSLTCTVSGFSLTNYNINWIRQPPGKGLEWIGVIWNGGGTNYNSAFMSRVTISKDTSKNQVSLKLSSVTAADTAVYYCVREAYFSNYGFYFDYWGQGTLVTVSS
VL: DIQMTQSPSSLSASVGDRVTITCSASSSISSNYLHWYQQKPGKAPKLLIYRTSNLASGVPSRFSGSGSGTDFTLTISSLQPEDFATYYCQQGSSIPRTFGGGTKVEIK
B8: hu50C2 (45.50C2.A6) (antibody, V domains shown)
VH: QVQLQESGPGLVKPSETLSLTCTVSGFSLTNYNINWIRQPPGKGLEWIGVIWTGGGTNYNSAFMSRVTISKDTSKNQVSLKLSSVTAADTAVYYCVREAYFSNYGFYFDYWGQGTLVTVSS
VL: DIQMTQSPSSLSASVGDRVTITCSASSSISSNYLHWYQQKPGKAPKLLIYRTSNLASGVPSRFSGSGSGTDFTLTISSLQPEDFATYYCQQGSSIPRTFGGGTKVEIK
B9: hu32B10 HAM (45.32B10.A4) (antibody, V domains shown)
VH: EVQLLESGGGLVQPGGSLRLSCAASGFTFSNYVMSWVRQAPGKGLEWVSTITSGGTYTYYPDSVKGRFTISRDNSKNTLYLQMNSLRAEDTAVYYCTRWLLSLYAMDYWGQGTTVTVSS
VL: DIQMTQSPSSLSASVGDRVTITCRASQDISNFLNWYQQKPGKAVKLLLYYTSRLHSGVPSRFSGSGSGTDYTLTISSLQPEDFATYFCQQFKTYPYTFGGGTKVEIK
B10: hu32B10 (45.32B10.A4) (antibody, V domains shown)
VH: EVQLLESGGGLVQPGGSLRLSCAASGFTFSNYVMSWVRQAPGKGLEWVSTITSGGTYTYYPDSVKGRFTISRDNSKNTLYLQMNSLRAEDTAVYYCTRWLLSLYAMDYWGQGTTVTVSS
VL: DIQMTQSPSSLSASVGDRVTITCRASQDISNFLNWYQQKPGKAVKLLLYYTSRLHSGVPSRFSGSGSGTDYTLTISSLQPEDFATYFCQQGKTYPYTFGGGTKVEIK
B11: 45.32A8.G6 (antibody, V domains shown)
VH: QVQLKESGPGLVAPSHSLSITCTVSGFSLTNYNINWIRQPPGKGLEWLGIIWTGGGTNYNSAFMSTLSINKDNSKSQVFLKMNRMQTDDTTIYYCVRETYFNNYGFYFDYWGQSTTLTVSS
VL: EIVLTQSPTTMAASPGEKITITCSASSSISSNYLHWYQQKPGFSPKLLIYRTSNLASGVPARFSGSGSGTSYSLTIGTMEAEDVATYYCQQGSSIPRTFGGGTKLEIK
B12: 45.31G8.E9 (antibody, V domains shown)
VH: QIQLQQSGAELVRPGTSVKMSCKAVGYTFTNYWINWVKQRPGHGFEWIGDIYPGGYYINYNEKFKGKATLTADTSSSTAYMQLSSLTSEDSAIYYCARGYGSYAMDYWGQGTSVTVSS
VL: DIVMTQSQKFMSTSVGDRVSITCKASQNVRTDVVWYQQKPGQSPKALIFLASNRHTGVPDRFTGSGSGTDFTLTISNVQSEDLADYFCLQHWNYPYTFGGGTKLEIK
B13: 45.75D4.D3.D9 (antibody, V domains shown)
VH: EVQLQQSGPELVKPGASMKMSCKASGYKFTSYVMHWVKQKPGQGLEWIGYIDPYNDGSKYNEKFKGKATLTSDKSSSIAYMELSSLTSEDSAVFYCARGGSRGWYFDVWGAGTTVTVSS
VL: DIQMTQSPASLSASVGETVTFTCRTNENIYSYLTWYQQKQGKSPQVLVYNAKTLAEGVPSRFSGSGSGTQFSLKINSLQPEDFGSYFCQHHFGNPLTFGAGTKLELK
B14: 45.56F7.A1 (antibody, V domains shown)
VH: EVQLVESGGALVKPGGSLKLSCAASGFTFSNYAMSWVRQTPEKRLEWVATISSGGSYTYYPDSVKGRFTISRDNAKNTLYLQMSSLRSEDTALYYCARWLLSLYAMDYWGQGTSVTVSS
VL: DFQMTQTTSSLSASLGDRVTISCRSSQDISNYLNWYQQKPDGTVKLLIYRTSRLHSGVPSRFSGSGSGTDYSLTISNLEREDIATYFCQQGKTPPYTFGGGTKLEIK
B15: 45.87B8.H2.H5 (antibody, V domains shown)
VH: DVQLQESGPGLVKPSQSLSLTCTVTGYSITSAYDWHWIRLFPGHILEWMGYISYSGNTIYNPSLKSRISITHDTSKNHFFLKLNSVTTEDTATYYCARGSFWYFDVWGAGTTVTVSS
VL: DIQMTQSPASLSASVGETVTITCRVSEHIYNYLAWYQQKQGKSPQLLVYNAKTLAEGVPSRFSGSGSGTQFSLKINSLQPEDFGTYYCQHNYGNPLTFGAGTKVELK
B16: 45.62B12.G5 (antibody, V domains shown)
VH: DVQLQESGPGLVKPSQSLSLTCTVTGYSITSAYDWHWIRHFPGNILEWMGYIRNSGSTNYNPLLKSRISITHDTSQNHFSLKLNSVTTEDTATYYCARGLFWYFDVWGAGTTVTVSS
VL: DIQMTQSPASLSASVGETVTITCRASENIYNYLTWYQQKQGKSPQLLVYNAKTLAEGVPSRFSGSGSGTQFSLKINSLQPEDFGSYYCQHHYGNPLTFGAGTKLELK
B17: 45.86C5.C3 (antibody, V domains shown)
VH: DVQLQESGPGLVKPSQSLSLTCTVTGYSITSGYDWHWIRHFPGNILEWMGYISDSGNTIYSPSLKSRISITHDTSKNHFFLKLNSVTSEDTATYYCARGSFWYFDVWGAGTTVTVSS
VL: DIQMTQSPASLSASVGETVTITCRVSENIYSYLAWYQQKQGKSPQLLVYNTKTLAEGVPSRFSGSGSGTQFSLKINSLQPEDFGSYYCQHHYGNPLTFGAGTKLELK
B18: 45.3D7.F7 (antibody, V domains shown)
VH: QVQLQQSGPELVKPGASVKISCKASGYGFSGYWMNWVKQGPGKGLEWIGRIFPGDGDTDYNGKLKDKATLTAYKSSSTAYLQLSSLTSEDSAVYFCARWLGGFTSWGQGTLVTVSA
VL: QIVLSQSPAILSASPGEKVTMTCRASASVSYMHWYQQKPGSSPKPWIYATSNLASGVPARFSGSGSGTSYSLTISRVEAEDAATYYCQQWSSDPPTFGAGTKLELK
B19: 45.102D4.C12.C6 (antibody, V domains shown)
VH: EVQLQQSGPELVKPGASVKMSCKASGYTFTTYVIHWVKQKPGQGLEWIGYINPYNDGTKYNEKFKVKATLTSDKSSSTAYMELSSLTSEDSAVYYCARSFYVNYGFAYWGQGTLVTVSA
VL: DIVMTQAHKFMSTSVGDRVSITSKASQDVRTAVAWYQQKPGQSPKLLIYSASYRYTGVPDRFTGSGSGADFTFTISSVQAEDLAVYYCQQHYITPWTFGGGTKLEIK
B20: 45.49H11.H11 (antibody, V domains shown)
VH: EVQLQQSGPELVKPGASVKMSCKTSKYTFTNYVLHWVKQKPGQGLEWIGYINPYNDGTKYNEKFKGKATLTSDKSSSTAYMELSSLTSEDSAVYYCARSYQSNYGFGYWGQGTLVTVSA
VL: DIVMTQSHKFMSTSVGDRVSITCKASQHVSTAVVWYRQIPGQSPKILINSASYRYTGVPDRFTGSGSGTDFTFTISSVQAEDLAVYYCQQHYSIPWTFGGGTKLEIK

In the first assay the target is Cynomolgus TIGIT. Kind of assay: Biacore.
In general, Kd refers to the equilibrium constant for the complex coming apart. On to B1, for which binding was characterised by a dissociation constant (Kd) of 45.9 nM. Still for that read-out and setting: under B2 stands 8.7 nM; under B3, 26 nM; under B4, 6.73 nM.

The target of another assay is T1, recombinant human TIGIT-His (SinoBiological) (UniProt Q495A1 22-141).
T1 chain: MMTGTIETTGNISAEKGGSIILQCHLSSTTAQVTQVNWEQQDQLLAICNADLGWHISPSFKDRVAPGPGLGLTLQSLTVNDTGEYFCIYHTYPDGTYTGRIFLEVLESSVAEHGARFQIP
Kind of assay: Biacore. A general note: Surface plasmon resonance follows binding to a sensor surface in real time, without labels.
Regarding B5, the Kd worked out at 0.386 nM. As to B6, the Kd stood at 0.53 nM. For B7, the Kd worked out at 4.17 nM. On the same count and under the same terms, under B8 stands 1.46 nM. As to B9, the Kd was determined as 0.271 nM. Turning to B10, the Kd is 1.61 nM.

The next assay has as its target T1, recombinant human TIGIT-His …. Kind of assay: Biacore; 25°C.
B11: the Kd is 0.428 nM. B5: the Kd amounted to 0.386 nM. The same measure, in the same setting: under B12 stands 0.776 nM; under B13, 1.09 nM. Turning to B6, the Kd worked out at 0.53 nM. Still for that read-out and setting: under B14 stands 12 nM; under B15, 4.75 nM; under B16, 0.862 nM.

In the case of B17, the Kd is 0.784 nM. The same measure, in the same setting: under B18 stands 4.47 nM; under B19, 1.23 nM. Consider B20, for which the Kd came to 1.04 nM.
